Experiment [1] addresses T1, Syt4 C2AB (residues 151–425) (human, UniProt Q9H2B2-1 151-425).
T1 construct: also called Syt4 CAB; source: E. coli BL21 (DE3), purified (Ni-NTA, size-exclusion chromatography)
T1 sequence (looked up): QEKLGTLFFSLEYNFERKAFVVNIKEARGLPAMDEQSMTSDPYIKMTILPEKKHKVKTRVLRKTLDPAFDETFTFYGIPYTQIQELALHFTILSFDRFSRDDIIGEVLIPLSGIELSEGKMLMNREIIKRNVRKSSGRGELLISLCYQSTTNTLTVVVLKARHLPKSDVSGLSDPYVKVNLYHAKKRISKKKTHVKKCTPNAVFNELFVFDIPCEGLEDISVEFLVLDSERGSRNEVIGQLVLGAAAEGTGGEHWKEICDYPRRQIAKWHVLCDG
Put plainly: ITC; ARMS proteins (200 μM) in the syringe, Syt4 proteins (20 μM) in the cell; 25 °C; 50 mM Tris, 100 mM NaCl, 1 mM EDTA, 1 mM DTT, pH 7.8; one-site binding model. As to conditions: both partners purified. On the technique in general: Isothermal titration calorimetry measures the heat released or taken up as one component is titrated into another.

Experiment [2] deals with T2, full length of the cytoplasmic region of Syt4 (CD, residues 41–425) (human, UniProt Q9H2B2-1 41-425).
T2 construct: also called Synaptotagmin-4 CD; source: E. coli BL21 (DE3), purified (Ni-NTA, size-exclusion chromatography)
T2 sequence (looked up): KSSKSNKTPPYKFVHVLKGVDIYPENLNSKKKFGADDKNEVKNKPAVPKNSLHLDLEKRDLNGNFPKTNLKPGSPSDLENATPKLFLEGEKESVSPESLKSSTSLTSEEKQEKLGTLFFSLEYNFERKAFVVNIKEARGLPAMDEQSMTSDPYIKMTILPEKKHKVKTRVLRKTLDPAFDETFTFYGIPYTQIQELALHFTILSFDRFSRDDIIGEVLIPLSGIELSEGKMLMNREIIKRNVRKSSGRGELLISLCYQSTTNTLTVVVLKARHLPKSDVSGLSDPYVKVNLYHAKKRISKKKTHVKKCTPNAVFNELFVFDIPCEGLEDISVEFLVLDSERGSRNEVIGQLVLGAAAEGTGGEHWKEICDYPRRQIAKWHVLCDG
Described as above. As to conditions: both partners purified.

Experiment [3] addresses T3, Syt4 132-425 K279A,R280A,R283A (Homo sapiens).
T3 chain: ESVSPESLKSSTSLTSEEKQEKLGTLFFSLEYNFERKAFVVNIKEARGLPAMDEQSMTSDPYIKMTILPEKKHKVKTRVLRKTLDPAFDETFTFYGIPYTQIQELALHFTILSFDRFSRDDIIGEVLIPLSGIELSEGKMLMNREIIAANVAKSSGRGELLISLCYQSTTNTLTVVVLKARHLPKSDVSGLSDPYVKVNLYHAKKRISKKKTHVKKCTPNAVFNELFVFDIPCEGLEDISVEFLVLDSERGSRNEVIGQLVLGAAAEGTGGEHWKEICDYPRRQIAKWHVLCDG
The experiment in a line: ITC.

The next experiment addresses T4, Syt4 132-425 R288A (Homo sapiens).
T4 chain: T3 chain with A148K, A149R, A152R, R157A
Put plainly: ITC.

The target of another experiment is T5, Syt4 132–425 (human, UniProt Q9H2B2-1 132-425).
T5 chain: T3 chain with A148K, A149R, A152R
Put plainly: ITC.

In another experiment the target is T6, Syt4 132-425 K279A,R280A (Homo sapiens).
T6 chain: T3 chain with A152R
Put plainly: ITC.

The next experiment deals with T7, Syt4 132–425 K284A (human, UniProt Q9H2B2-1 132-425, K284A).
T7 sequence: T3 chain with A148K, A149R, A152R, K153A
The experiment in a line: ITC.

Another experiment addresses T8, Syt4 132-425 R283A (Homo sapiens).
T8 chain: T3 chain with A148K, A149R
Put plainly: ITC.

The target in another experiment is T9, Syt4 132–425 Q186A (human, UniProt Q9H2B2-1 132-425, Q186A).
T9 sequence: T3 chain with Q55A, A148K, A149R, A152R
Put plainly: ITC.

The next experiment has as its target T10, Syt4 132-425 R283A,K284A (Homo sapiens).
T10 chain: T3 chain with A148K, A149R, K153A
Put plainly: ITC.

Numbering of substitutions follows the chain as printed.

B1: ARMS R1-8 (residues 1–270) (domain or fragment, rat, UniProt Q9EQG6 1-270, looked up)
chain: MSVLISQSVINYVEEENIPALKALLEKCKDVDERNECGQTPLMLAAEQGNVEIVKELLKNGANCNLEDLDNWTALISASKEGHIHIVEELLKSGASLEHRDMGGWTALMWACYKGRTDVVELLLSHGANPSVTGLYSVYPIIWAAGRGHADIVHLLLQNGAKVNCSDKYGTTPLVWAARKGHLECVKHLLAMGADVDQEGANSMTALIVAVKGGYTQSVKEILKRNPNVNLTDKDGNTALMIASKEGHIEIVQDLLDAGTYVNIPDRSGD
notes: ARMS (Kidins220), rat, UniProt Q9EQG6, residues 1-270: ankyrin repeats 1-8; also called ARMS ankyrin repeats 1–8; source: E. coli BL21 (DE3), purified (Ni-NTA, size-exclusion chromatography)
What is called Kd is the equilibrium constant for the complex coming apart. A low value points to higher affinity. For the molecule B1, in experiment [1], the Kd is about 11 µM.

B2: ARMS ankyrin repeats 1–11 (R1-11, residues 1–365) (domain or fragment, rat, UniProt Q9EQG6 1-365, looked up)
chain: MSVLISQSVINYVEEENIPALKALLEKCKDVDERNECGQTPLMLAAEQGNVEIVKELLKNGANCNLEDLDNWTALISASKEGHIHIVEELLKSGASLEHRDMGGWTALMWACYKGRTDVVELLLSHGANPSVTGLYSVYPIIWAAGRGHADIVHLLLQNGAKVNCSDKYGTTPLVWAARKGHLECVKHLLAMGADVDQEGANSMTALIVAVKGGYTQSVKEILKRNPNVNLTDKDGNTALMIASKEGHIEIVQDLLDAGTYVNIPDRSGDTVLIGAVRGGHVEIVRALLQKYADIDIRGQDNKTALYWAVEKGNATMVRDILQCNPDTEICTKDGETPLIKATKMRNIEVVELLLDKGAKVSAVD
notes: ARMS (Kidins220), rat, UniProt Q9EQG6, residues 1-365: ankyrin repeats 1-11; also called ARMS R1-11; ARMS R1-11 WT; source: E. coli BL21 (DE3), purified (Ni-NTA, size-exclusion chromatography)
Regarding B2, the Kd in experiment [2] was about 11 µM; in [3], 19 µM; with Syt4 132-425 R288A it was 10 µM; with Syt4 132–425, 12 µM; in the experiment with Syt4 132-425 K279A,R280A, 9 µM; with Syt4 132–425 K284A it was 3 µM. Further, the Kd is 4 µM with Syt4 132-425 R283A, 3 µM in the experiment with Syt4 132–425 Q186A and 4 µM with Syt4 132-425 R283A,K284A.

These data come from publication PMC10707181, “Neuronal Scaffold Protein ARMS Interacts with Synaptotagmin-4 C2AB through the Ankyrin Repeat Domain with an Unexpected Mode” (International Journal of Molecular Sciences, 2023).
